Drawing on paper PMC10742460, “Lambda CI Binding to Related Phage Operator Sequences Validates Alignment Algorithm and Highlights the Importance of Overlooked Bonds”, this text covers Kd for 18 molecules.

Positions count from the first letter of the chain named.

B1: VOR3 (VT2-SA OR3) (dsDNA)
DNA 1: GGTTATTATGGTATTACGCTCTGTACTGTGCAAGTGC
DNA 2: GCACTTGCACAGTACAGAGCGTAATACCATAATAACC
B2: VOL1 (VT2-SA OL1) (dsDNA)
DNA 1: B1 DNA 1 with T14G, C19A, C21A, G28T
DNA 2: B1 DNA 2 with C10A, G17T, G19T, A24C
B3: LOR1 (lambda OR1) (dsDNA)
DNA 1: GGTTATTATGGTACCTCTGGCGGTGATATGCAAGTGC
DNA 2: GCACTTGCATATCACCGCCAGAGGTACCATAATAACC
B4: LOR3 (lambda OR3) (dsDNA)
DNA 1: GGTTATTATGGTATCACCGCAAGGGATATGCAAGTGC
DNA 2: GCACTTGCATATCCCTTGCGGTGATACCATAATAACC
B5: LOL1 (lambda OL1) (dsDNA)
DNA 1: B4 DNA 1 with A21C, G24T, A26G
DNA 2: B4 DNA 2 with T12C, C14A, T17G
B6: LOL2 (lambda OL2) (dsDNA)
DNA 1: B4 DNA 1 with T12C, T14A, A21C, G24A
DNA 2: B4 DNA 2 with C14T, T17G, A24T, A26G
B7: SOL3 (Stx2I OL3) (dsDNA)
DNA 1: GGTTATTATGGGCTTCTTGAATAACAGCTGCAAGTGC
DNA 2: GCACTTGCAGCTGTTATTCAAGAAGCCCATAATAACC
B8: VOL2 (VT2-SA OL2) (dsDNA)
DNA 1: GGTTATTATGGCAATACAATTTGTTCTATGCAAGTGC
DNA 2: GCACTTGCATAGAACAAATTGTATTGCCATAATAACC
B9: SOL1 (Stx2I OL1) (dsDNA)
DNA 1: GGTTATTATGGCAATGATGATTTCATGCTGCAAGTGC
DNA 2: GCACTTGCAGCATGAAATCATCATTGCCATAATAACC
B10: LOL3 (lambda OL3) (dsDNA)
DNA 1: GGTTATTATGGTATCACCGCAGATGGTTTGCAAGTGC
DNA 2: GCACTTGCAAACCATCTGCGGTGATACCATAATAACC
B11: SOL2 (Stx2I OL2) (dsDNA)
DNA 1: GGTTATTATGGTGTAATATTTTCTTACATGCAAGTGC
DNA 2: GCACTTGCATGTAAGAAAATATTACACCATAATAACC
B12: VOL3 (VT2-SA OL3) (dsDNA)
DNA 1: GGTTATTATGGTACAACGCTTTGTATTTTGCAAGTGC
DNA 2: GCACTTGCAAAATACAAAGCGTTGTACCATAATAACC
B13: SOR2 (Stx2I OR2) (dsDNA)
DNA 1: GGTTATTATGGATGAGTACGATACTAAATGCAAGTGC
DNA 2: GCACTTGCATTTAGTATCGTACTCATCCATAATAACC
B14: SOR1 (Stx2I OR1) (dsDNA)
DNA 1: GGTTATTATGGTTTCAGTTCAACCATAATGCAAGTGC
DNA 2: GCACTTGCATTATGGTTGAACTGAAACCATAATAACC
B15: LOR2 (lambda OR2) (dsDNA)
DNA 1: GGTTATTATGGTAACACCGTGCGTGTTGTGCAAGTGC
DNA 2: GCACTTGCACAACACGCACGGTGTTACCATAATAACC
B16: VOR2 (VT2-SA OR2) (dsDNA)
DNA 1: GGTTATTATGGATGCACAATGTGTATTTTGCAAGTGC
DNA 2: GCACTTGCAAAATACACATTGTGCATCCATAATAACC
B17: VOR1 (VT2-SA OR1) (dsDNA)
DNA 1: GGTTATTATGGAAGTACATATTGTATTTTGCAAGTGC
DNA 2: GCACTTGCAAAATACAATATGTACTTCCATAATAACC
B18: SOR3 (Stx2I OR3) (dsDNA)
DNA 1: GGTTATTATGGGGGCGAATTCTTTGCGCTGCAAGTGC
DNA 2: GCACTTGCAGCGCAAAGAATTCGCCCCCATAATAACC

In one series the target is T1, lambda CI repressor (Bacteriophage lambda, UniProt P03034 1-237). Put plainly: EMSA; apparent Kd; EMSA: 10 mM HEPES, 150 mM NaCl, pH 7.4; 50 nM DNA, 0.4-40 uM CI; 20 min at room temperature; 10% polyacrylamide gel, 1x TBE pH 8.3, SYBR Safe stain. To be noted: protein: recombinant; tags: His-tag, TEV cleavage site with linker (pET 29b+); chain copies: 2; label: none (SYBR Safe stain).
T1 sequence (P03034 whole entry): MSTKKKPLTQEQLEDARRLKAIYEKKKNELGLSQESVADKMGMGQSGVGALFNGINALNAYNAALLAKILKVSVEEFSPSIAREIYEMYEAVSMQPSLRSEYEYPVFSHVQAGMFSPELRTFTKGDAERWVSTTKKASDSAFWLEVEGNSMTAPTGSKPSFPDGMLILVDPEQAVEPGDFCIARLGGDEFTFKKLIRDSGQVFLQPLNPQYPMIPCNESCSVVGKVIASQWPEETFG
As for B1, the Kd is 4.41 ± 0.99 µM. Consider B2, for which the Kd was determined as 5.37 ± 1.16 µM. In the case of B3, the Kd is 0.35 ± 0.03 µM.

With B4, the Kd was found to be 3.07 ± 1.13 µM. Consider B5, for which the Kd was determined as 0.21 ± 0.02 µM. As to B6, the Kd is 1.5 ± 0.17 µM. On to B7, for which the Kd amounted to 4.26 ± 0.27 µM. Same read-out and setting: for B8 the value was 4.02 ± 0.16 µM.

As for B9, the Kd was 7.11 ± 1.27 µM. Same read-out and setting: for B10 the value was 1.21 ± 0.08 µM; for B11, 3.68 ± 0.47 µM; for B12, 3.67 ± 0.1 µM. The same measure, in the same setting: for B13 the value was 7.67 ± 2.62 µM; for B14, 7.27 ± 2.39 µM. As to B15, the Kd stood at 1.55 ± 0.29 µM. Same read-out and setting: for B16 the value was 6.39 ± 2.75 µM; for B17, 5.15 ± 2.39 µM.

Another series addresses T1, lambda CI repressor. Put plainly: EMSA; apparent Kd; text gives error 3.10; EMSA: 10 mM HEPES, 150 mM NaCl, pH 7.4; 50 nM DNA, 0.4-40 uM CI; 20 min at room temperature; 10% polyacrylamide gel, 1x TBE pH 8.3, SYBR Safe stain. To be noted: protein: recombinant; tags: His-tag, TEV cleavage site with linker (pET 29b+); chain copies: 2; label: none (SYBR Safe stain).
Take B18: the Kd was 7.68 ± 3.09 µM.
